Assay results taken from publication PMC12072117.

Molecular target: cyclin-dependent kinase 1 (CDK1) (Xenopus laevis (endogenous in oocyte CSF extract))

- histone H1 kinase activity of CDC6-depleted CSF extract with 10 to 20 nM GST-CDC6 added (about 40% less with 10 nM, 45% less with 20 nM): 45 % less
Substance: glutathione S-transferase-tagged cell division cycle 6 (GST-CDC6) (natural protein)
